# T1: RANTES(1-68), P13501
# T1 chain: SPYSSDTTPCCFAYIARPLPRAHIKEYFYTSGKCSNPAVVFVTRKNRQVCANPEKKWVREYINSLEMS
# Biological target: T1, RANTES(1-68), P13501
protein,measurement,value
enzymatically deficient (E-) recombinant soluble human CD26 (sCD26) (protein) NKGTDDATADSRKTYTLTDYLKNTYRLKLYSLRWISDHEYLYKQENNILVFNAEYGNSSVFLENSTFDEFGHSINDYSISPDGQFILLEYNYVKQWRHSYTASYDIYDLNKRQLITEERIPNNTQWVTWSPVGHKLAYVWNNDIYVKIEPNLPSYRITWTGKEDIIYNGITDWVYEEEVFSAYSALWWSPNGTFLAYAQFNDTEVPLIEYSFYSDESLQYPKTVRVPYPKAGAVNPTVKFFVVNTDSLSSVTNATSIQITAPASMLIGDHYLCDVTWATQERISLQWLRRIQNYSVMDICDYDESSGRWNCLVARQHIEMSTTGWVGRFRPSEPHFTLDGNSFYKIISNEEGYRHICYFQIDKKDCTFITKGTWEVIGIEALTSDYLYYISNEYKGMPGGRNLYKIQLSDYTKVTCLSCELNPERCQYYSVSFSKEAKYYQLRCSGPGLPLYTLHSSVNDKGLRVLEDNSALDKMLQNVQMPSKKLDFIILNETKFWYQMILPPHFDKSKKYPLLLDVYAGPCSQKADTVFRLNWATYLASTENIIVASFDGRGSGYQGDKIMHAINRRLGTFEVEDQIEAARQFSKMGFVDNKRIAIWGWAYGGYVTSMVLGSGSGVFKCGIAVAPVSRWEYYDSVYTERYMGLPTPEDNLDHYRNSTVMSRAENFKQVEYLLIHGTADDNVHFQQSAQISKALVDVGVDFQAMWYTDEDHGIASSTAHQHIYTHMSHFIKQCFSLP,hydrolysis of rhRANTES by sCD26 (ES-MS of cleavage products),shortened RANTES was not generated by incubation of the chemokine with a mutant sCD26 deficient in enzyme activity

# Source: patent US20030229203
